This note sets out measurements from PMC11172311, “Structural and Interactional Analysis of the Flavonoid Pathway Proteins: Chalcone Synthase, Chalcone Isomerase and Chalcone Isomerase-like Protein” (International Journal of Molecular Sciences, 2024).

The target in test [1] is Panicum virgatum chalcone synthase (PvCHS) (Panicum virgatum).
Test [2] shares this target. The source holds these as a separate data set.
The target is the same in test [3]. Description: ITC; PvCHS in the well, PvCHIL in the syringe; 22 injections of 2 µL; PBS; with naringenin chalcone at 5x molar excess. For orientation: ITC needs no label: the signal is the heat of the interaction.
Test [4] shares this target. Description: ITC; PvCHS in the well, PvCHIL in the syringe; 22 injections of 2 µL; PBS; no small molecule added.
The target is the same in test [5]. The description is as above. The source holds these as a separate data set.
Test [6] shares this target. Briefly: ITC; PvCHS in the well, PvCHIL in the syringe; 22 injections of 2 µL; PBS; with naringenin at 5x molar excess.
Test [7] deals with Panicum virgatum chalcone isomerase-like protein (PvCHIL) (Panicum virgatum). Briefly: FRET or BRET; PvCHIL labelled with ATTO 488 (donor) held at 1 µM, PvCHS labelled with ATTO 550 (acceptor) gradually increased; PBS pH 7.4; spectra in triplicate. In general terms: BRET reads energy transfer from a luciferase to a nearby fluorophore.
Test [8] addresses Panicum virgatum chalcone synthase (PvCHS) (Panicum virgatum). Description: crystal structure; PvCHS co-crystallised with naringenin and CoA, space group P1, four molecules in the unit cell; hanging drop, 277 K; data at 100 K.
In test [9] the target is Panicum virgatum chalcone isomerase (PvCHI) (Panicum virgatum). Briefly: FRET or BRET; PvCHI labelled with ATTO 488 (donor) held at 1 µM, PvCHS labelled with ATTO 647N (acceptor) gradually increased (0.5 to 10 µM); PBS pH 7.4; spectra in triplicate.

As for “Panicum virgatum chalcone isomerase (PvCHI) (enzyme)”, in test [1], the Vmax of PvCHS for p-coumaroyl-CoA (naringenin plus naringenin chalcone formed) in the presence of PvCHI against PvCHS alone was 24 fold; the Vmax of PvCHS for p-coumaroyl-CoA in the three-protein system (PvCHS, PvCHI and PvCHIL) against PvCHS alone; PvCHIL does not compete with PvCHI worked out at 437 fold.

For the substance “Panicum virgatum chalcone isomerase-like protein (PvCHIL) (natural protein)”, in [2], the Vmax of PvCHS for p-coumaroyl-CoA in the presence of PvCHIL (5:1 molar ratio) against PvCHS alone worked out at 7.7 fold. The Kd – broadly, the constant that tells how readily two partners part at equilibrium – is 170 µM in test [3], 76.3 µM in test [4] and 7.46 µM in test [6]. For the same substance, the dH worked out at 36.4 kcal/mol in [3], 31.8 kcal/mol in test [4], 31.9 kcal/mol in test [5] and 5.34 kcal/mol in test [6].

Take “Panicum virgatum chalcone synthase (PvCHS) (enzyme)”: the Kd was found to be 26.5 µM in test [7] and 0.637 µM in test [9]. The stoichiometry N (usually the number of molecules, sites or subunits per partner or assembly) in [8] was found to be 2.
